This note sets out measurements from patent publication US20130089513A1 (MEDEXGEN, published 2013).

For orientation: EC50 (read off the curve) means the concentration that produces a half-maximal response. The low end stands for higher potency in that assay, the high end for lower potency in that assay.

To fix the notation:
T1: G-CSF receptor linked to Fc domain of human IgG (human, UniProt Q99062 25-627, limits assumed)
T1 sequence (looked up): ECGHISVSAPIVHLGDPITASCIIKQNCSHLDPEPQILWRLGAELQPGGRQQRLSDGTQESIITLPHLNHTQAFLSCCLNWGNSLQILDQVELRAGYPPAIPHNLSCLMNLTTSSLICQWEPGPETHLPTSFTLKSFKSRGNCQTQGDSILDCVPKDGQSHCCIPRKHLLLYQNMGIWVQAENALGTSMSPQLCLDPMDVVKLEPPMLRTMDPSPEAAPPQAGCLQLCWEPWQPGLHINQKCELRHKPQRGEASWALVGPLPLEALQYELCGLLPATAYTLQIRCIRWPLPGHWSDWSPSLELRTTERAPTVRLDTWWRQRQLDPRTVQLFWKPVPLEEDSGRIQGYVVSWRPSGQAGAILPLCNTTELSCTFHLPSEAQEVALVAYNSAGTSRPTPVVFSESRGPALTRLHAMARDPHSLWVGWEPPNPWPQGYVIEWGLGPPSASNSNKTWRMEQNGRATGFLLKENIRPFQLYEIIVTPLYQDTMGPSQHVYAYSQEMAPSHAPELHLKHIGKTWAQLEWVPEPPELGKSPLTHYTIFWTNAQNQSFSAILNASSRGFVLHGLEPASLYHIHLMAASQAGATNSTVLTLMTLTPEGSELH

B1: wild type G-CSF (ligand)
chain: TPLGPASSLPQSFLLKCLEQVRKIQGDGAALQEKLCATYKLCHPEELVLLGHSLGIPWAPLSSCPSQALQLAGCLSQLHSGLFLYQGLLQALEGISPELGPTLDTLQLDVADFATTIWQQMEELGMAPALQPTQGAMPAFASAFQRRAGGVLVASHLQSFLEVSYRVLRHLAQP
notes: cDNA from leukocytes of healthy people; expressed in CHO-K1 cells; also called G-CSF wild type
B2: G-CSF-[F140V] (ligand)
chain: TPLGPASSLPQSFLLKCLEQVRKIQGDGAALQEKLCATYKLCHPEELVLLGHSLGIPWAPLSSCPSQALQLAGCLSQLHSGLFLYQGLLQALEGISPELGPTLDTLQLDVADFATTIWQQMEELGMAPALQPTQGAMPAVASAFQRRAGGVLVASHLQSFLEVSYRVLRHLAQP
notes: G-CSF mutein expressed in CHO-K1 cells; also called G-CSF-[F140VD]
B3: G-CSF F13V (ligand)
cytokine chain: TPLGPASSLPQSVLLKCLEQVRKIQGDGAALQEKLCATYKLCHPEELVLLGHSLGIPWAPLSSCPSQALQLAGCLSQLHSGLFLYQGLLQALEGISPELGPTLDTLQLDVADFATTIWQQMEELGMAPALQPTQGAMPAFASAFQRRAGGVLVASHLQSFLEVSYRVLRHLAQP
notes: used as CHO-K1 culture supernatant
B4: G-CSF F113V (ligand)
cytokine chain: TPLGPASSLPQSFLLKCLEQVRKIQGDGAALQEKLCATYKLCHPEELVLLGHSLGIPWAPLSSCPSQALQLAGCLSQLHSGLFLYQGLLQALEGISPELGPTLDTLQLDVADVATTIWQQMEELGMAPALQPTQGAMPAFASAFQRRAGGVLVASHLQSFLEVSYRVLRHLAQP
notes: as for B3
B5: G-CSF-[F160V] (ligand)
chain: TPLGPASSLPQSFLLKCLEQVRKIQGDGAALQEKLCATYKLCHPEELVLLGHSLGIPWAPLSSCPSQALQLAGCLSQLHSGLFLYQGLLQALEGISPELGPTLDTLQLDVADFATTIWQQMEELGMAPALQPTQGAMPAFASAFQRRAGGVLVASHLQSVLEVSYRVLRHLAQP
notes: G-CSF mutein expressed in CHO-K1 cells

The assay has as its target T1, G-CSF receptor linked to Fc domain of …. Put plainly: ELISA on coated G-CSF receptor-Fc, done like the TPO ELISA. A general note: In an ELISA, binding on a coated surface is turned into a signal by an enzyme label.
With B1, the concentration for a half-maximal effect (EC50 (read off the curve)) was around 0.04 µg/mL. To B2 belongs around 0.06 µg/mL; to B3, around 0.03 µg/mL; to B4, around 0.06 µg/mL. Take B5: the concentration giving a half-maximal response (EC50 (read off the curve)) is around 0.04 µg/mL.
